Data from publication PMC9405769, “The Crystal Structure of the Defense Conferring Rice Protein OsJAC1 Reveals a Carbohydrate Binding Site on the Dirigent-like Domain” (Biomolecules, 2022).

Legend:
[1] = target: the molecule itself; assay: crystal structure; DIR-cf1: protein in 15 mM Tris-HCl pH 7.4, 1 mM DTT, 6.25 mg/mL; reservoir 0.2 M CaCl2, 20% (w/v) PEG 3350; sitting drop, 20 °C; space group P212121; three chains per asymmetric unit
[2] = target: the molecule itself; assay: crystal structure; JRL-cf1: protein in 25 mM sodium phosphate pH 7.0, 10 mg/mL; reservoir 0.05 M MES pH 6.0, 28% (w/v) PEG 3350; sitting drop, 20 °C; non-reducing; space group P212121; two chains per asymmetric unit
[3] = target: the molecule itself; assay: crystal structure; JRL-cf2: protein in 25 mM sodium phosphate pH 7.0, 11 mg/mL; reservoir 0.2 M NH4I, 20% (w/v) PEG 3350; sitting drop, 20 °C; space group C2221; two chains per asymmetric unit

B1: OsJAC1-DIR domain (His-tag cleaved by thrombin) (domain or fragment, rice (Oryza sativa))
chain: SKLQITPCGMLVQGNQINFTKLYLHHTPAGPEQNQSAVTSNDKKTGLGCIVVNNWSVYDGIGSDAKLVAYAKGLHVFAGAWHNSFSLVFEDERLKGSTLQVMGLIVEEGDWAIVGGTGQFAMATGVILKKMQEQKQYGNIIELTIHGFCPLLKGS
notes: DIR (dirigent) domain, the N-terminal domain of the monocot chimeric jacalin OsJAC1, rice (Oryza sativa); traced residues include Lys6 (chain B), and the C-terminus of the model of chain A (cf1) is at Leu155; also called DIR-cf1; DIR-cf2; source: prepared as previously described in Huwa et al. (2021) [25]; His-tag removed with thrombin, no further purification
stoichiometry N [1]: 3

B2: OsJAC1-JRL domain (His-tagged, crystal form 1) (domain or fragment, rice (Oryza sativa))
chain: QCPVTKIGPWGSSHEGTVQDITESPKRLESITLYHGWSVDSISFTYLDHAGEKHKAGPWGGPGGDPIMIEFGSSEFLKEVSGTFGPYEGSTVITSINFITNKQTYGPFGRQEGTPFSVPAQNNSSIVGFFGRSGKYINAVGVYVQPI
modifications: symmetric inter-subunit disulfide bond at Cys161 (Cys161-Cys161)
notes: JRL (jacalin-related lectin) domain of the monocot chimeric jacalin OsJAC1, rice (Oryza sativa); the model's termini are Gln160 and Pro305 of full-length OsJAC1 (residue range 160-306 used for superposition); also called JRL-cf1; OsJAC1-JRL (cf1); source: prepared as previously described in Huwa et al. (2021) [25]
stoichiometry N [2]: 2

B3: OsJAC1-JRL domain (Strep-tagged, crystal form 2) (domain or fragment, rice (Oryza sativa))
chain: QCPVTKIGPWGSSHEGTVQDITESPKRLESITLYHGWSVDSISFTYLDHAGEKHKAGPWGGPGGDPIMIEFGSSEFLKEVSGTFGPYEGSTVITSINFITNKQTYGPFGRQEGTPFSVPAQNNSSIVGFFGRSGKYINAVGVYVQPI
modifications: symmetric inter-subunit disulfide bond at Cys161 (Cys161-Cys161)
notes: JRL (jacalin-related lectin) domain of the monocot chimeric jacalin OsJAC1, rice (Oryza sativa); residue range 160-306 of full-length OsJAC1 used for superposition; also called JRL-cf2; OsJAC1-JRL (cf2); source: prepared as previously described in Huwa et al. (2021) [25]
stoichiometry N [3]: 2
